The values below come from patent US20020058253A1.

In general, Kd refers to the concentration at which binding is half-saturated.

The target in the assay is QL9, nonameric variant of p2Ca (2-oxoglutarate dehydrogenase); residues not printed peptide on H-2Ld (mouse). The experiment in a line: value cited from Manning et al. 1999; single-chain.

For 2C TCR, the Kd turned out to be 3.2 µM.
